This is an account of results in publication PMC7220375.

The target in the assay is full-length t-SNARE complex (mouse His6-SNAP25B, residues 1-206 and rat Syntaxin1A, residues 1-288) (mouse | rat) (UniProt P60879).
Chain of full-length t-SNARE complex (mouse His6-SNAP25B, residues 1-206 and rat Syntaxin1A, residues 1-288) (mouse | rat) (P60879 whole entry, chain 1 of 2, the tested form may be a part): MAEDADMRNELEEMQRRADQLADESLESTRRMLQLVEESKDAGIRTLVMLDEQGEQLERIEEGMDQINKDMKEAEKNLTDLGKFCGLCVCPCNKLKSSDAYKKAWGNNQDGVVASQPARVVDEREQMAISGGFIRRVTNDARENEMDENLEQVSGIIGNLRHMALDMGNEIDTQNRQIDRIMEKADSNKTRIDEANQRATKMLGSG
Chain of full-length t-SNARE complex (mouse His6-SNAP25B, residues 1-206 and rat Syntaxin1A, residues 1-288) (mouse | rat) (chain, as listed by the source, chain 2 of 2): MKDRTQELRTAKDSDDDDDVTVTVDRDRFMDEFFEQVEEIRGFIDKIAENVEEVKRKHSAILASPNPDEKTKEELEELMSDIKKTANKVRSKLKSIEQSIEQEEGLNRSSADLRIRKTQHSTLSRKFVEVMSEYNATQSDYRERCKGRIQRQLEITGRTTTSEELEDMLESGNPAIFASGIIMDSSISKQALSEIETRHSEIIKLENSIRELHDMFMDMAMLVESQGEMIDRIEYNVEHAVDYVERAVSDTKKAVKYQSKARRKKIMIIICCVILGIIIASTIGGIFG

Substance “Syt1^LLQQ (rat Synaptotagmin1-His6, residues 57-421, L387Q/L394Q) (from UniProt P21707 57-421) (domain or fragment)” registered a share of clamped vesicles that stay unfused after Ca2+ (1 mM), normal VAMP2, with 2 µM Cpx (tripartite interface of Syt1 with Cpx and SNAREs) of 25%.
